Laboratory results as given in US20100119506A1 (published 2010).

How the values were obtained:
[1] = target: T1, Murine PAR-2 peptide (murine); test: Mouse PAR-2 Peptide Binding (Kinexa)
T1 construct: also called mouse PAR-2 peptide
T1 peptide: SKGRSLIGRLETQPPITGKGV
Experimental: (§1) Binding to peptide in solution was determined by Kinexa technology.

[2] = target: T2, Rat PAR-2 (endogenous, ARIP cells and rat aortic rings) (rat, UniProt Q63645 37-397); test: cell-based or functional assay
T2 sequence (looked up): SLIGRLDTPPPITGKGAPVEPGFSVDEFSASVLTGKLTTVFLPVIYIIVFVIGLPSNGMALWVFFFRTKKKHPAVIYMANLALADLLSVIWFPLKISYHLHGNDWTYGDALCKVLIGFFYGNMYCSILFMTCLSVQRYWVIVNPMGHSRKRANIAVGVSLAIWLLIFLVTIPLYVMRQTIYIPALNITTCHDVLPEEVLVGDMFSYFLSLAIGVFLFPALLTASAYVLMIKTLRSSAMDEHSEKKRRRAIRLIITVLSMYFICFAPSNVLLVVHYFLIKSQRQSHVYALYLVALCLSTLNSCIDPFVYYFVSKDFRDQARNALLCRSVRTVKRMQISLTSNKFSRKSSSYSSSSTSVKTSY

[3] = target: T3, Mouse PAR-2 (endogenous, LLC cells and mouse aortic rings) (mouse, UniProt P55086 39-399); test: cell-based or functional assay
T3 sequence (looked up): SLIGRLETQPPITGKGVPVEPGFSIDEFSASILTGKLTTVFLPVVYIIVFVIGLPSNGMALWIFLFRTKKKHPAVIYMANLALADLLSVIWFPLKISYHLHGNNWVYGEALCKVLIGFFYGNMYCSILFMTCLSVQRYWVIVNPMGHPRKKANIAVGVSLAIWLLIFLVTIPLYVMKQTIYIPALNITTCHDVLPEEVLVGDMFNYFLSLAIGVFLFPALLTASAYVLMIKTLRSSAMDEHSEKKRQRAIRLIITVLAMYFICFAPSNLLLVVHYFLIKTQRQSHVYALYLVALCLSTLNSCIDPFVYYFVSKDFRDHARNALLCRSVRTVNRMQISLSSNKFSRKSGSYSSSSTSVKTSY

[4] = target: T4, Human PAR-2 on cells (human, UniProt P55085 26-397); test: binding to human PAR-2 transfected HEK293 cells
T4 construct: also called HEK-PAR-2 (#3); human PAR-2 transfected HEK293 cells
T4 sequence: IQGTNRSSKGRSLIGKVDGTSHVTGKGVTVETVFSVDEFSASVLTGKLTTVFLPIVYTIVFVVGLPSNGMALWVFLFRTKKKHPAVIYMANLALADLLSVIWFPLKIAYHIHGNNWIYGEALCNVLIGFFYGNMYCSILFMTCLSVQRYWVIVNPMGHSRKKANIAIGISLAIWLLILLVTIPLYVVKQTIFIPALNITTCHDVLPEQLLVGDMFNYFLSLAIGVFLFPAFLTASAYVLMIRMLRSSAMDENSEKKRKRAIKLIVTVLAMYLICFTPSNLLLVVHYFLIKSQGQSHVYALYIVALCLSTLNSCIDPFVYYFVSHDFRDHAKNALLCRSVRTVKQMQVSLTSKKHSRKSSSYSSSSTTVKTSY

[5] = target: T5, Rat PAR-2 peptide (rat); test: Rat PAR-2 Peptide Binding (Kinexa)
T5 peptide: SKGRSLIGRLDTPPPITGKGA
Experimental: as §1

[6] = target: T6, Cynomolgus PAR-2 peptide (cynomolgus); test: Kinexa, peptide in solution
T6 peptide: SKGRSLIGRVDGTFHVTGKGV
Experimental: as §1

[7] = target: T7, Human PAR-2 peptide (SEQ ID NO:1, Residues 33-54) (human); test: Kinexa, peptide in solution
T7 peptide: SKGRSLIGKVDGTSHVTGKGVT
Experimental: as §1

[8] = target: T1, Murine PAR-2 peptide; test: Kinexa, peptide in solution
Experimental: as §1

[9] = target: T5, Rat PAR-2 peptide; test: Kinexa, peptide in solution
Experimental: as §1

[10] = target: T4, Human PAR-2 on cells; test: cell-based or functional assay

B1: Antibody Par-B (antibody, V domains shown)
VH: QVELVESGGGLVQPGGSLRLSCAASGFTFSSYAMNWVRQAPGKGLEWVSTISYSSSATSYADSVKGRFTISRDNSKNTLYLQMNSLRAEDTAVYYCARIQNDPMDVWGQGTLVTVSS
VL: DIELTQPPSVSVAPGQTARISCSGDNLGKKYVQWYQQKPGQAPVLVIYDDSNRPSGIPERFSGSNSGNTATLTISGTQAEDEADYYCQTWDYSSIRDETNVFGGGTKLTVLG
notes: Codon-optimized version of Ab4999 made in CHO-DG44
- Kd [1]: 0.08 nM
- fold vs. human peptide [1]: 1 fold
- Rat Aortic Ring Assay, shift of EC50 (Trypsin) [2]: ~8 fold
- Mouse Aortic Ring Assay, shift of EC50 (Trypsin) [3]: ~5 fold
- Mouse Cell Line FLIPR IC50 [3]: ~0.4 nM
- EC50 [4]: ~0.3 nM
- Kd [5]: 0.02 nM
- fold vs. human peptide [5]: 4 fold
- Kd [6]: 0.04 nM
- Kd [7]: 0.08 nM
- Kd [8]: 0.08 nM
- Kd [9]: 0.02 nM
- Human Keratinocyte/IL-8 assay IC50 [10]: ~100 nM
